Here are results for six molecules from US20240368242A1 (SHATTUCK LABS, published 2024).

B1: human PD-1-Fc-OX40L chimeric protein treated with the deglycosylase PNGase F (Fc fusion)
chain: LDSPDRPWNPPTFSPALLVVTEGDNATFTCSFSNTSESFVLNWYRMSPSNQTDKLAAFPEDRSQPGQDCRFRVTQLPNGRDFHMSVVRARRNDSGTYLCGAISLAPKAQIKESLRAELRVTERRAEVPTAHPSPSPRPAGQFQSKYGPPCPSCPAPEFLGGPSVFLFPPKPKDTLMISRTPEVTCVVVDVSQEDPEVQFNWYVDGVEVHNAKTKPREEQFNSTYRVVSVLTVLHQDWLSGKEYKCKVSSKGLPSSIEKTISNATGQPREPQVYTLPPSQEEMTKNQVSLTCLVKGFYPSDIAVEWESNGQPENNYKTTPPVLDSDGSFFLYSRLTVDKSSWQEGNVFSCSVMHEALHNHYTQKSLSLSLGKIEGRMDQVSHRYPRIQSIKVQFTEYKKEKGFILTSQKEDEIMKVQNNSVIINCDGFYLISLKGYFSQEVNISLHYQKDEEPLFQLKKVRSVNSLMVASLTYKDKVYLNVTTDNTSLDDFHVNGGELILIHQNPGEFCVL
modifications: N-glycans removed with PNGase F
notes: also called deglycosylated hPD-1-Fc-OX40L
B2: human PD-1-Fc-OX40L chimeric protein (Fc fusion)
chain: B1 chain
notes: Glycosylated; also called hPD-1-Fc-OX40L
B3: murine PD-1-Fc-OX40L chimeric protein (Fc fusion)
chain 1: LEVPNGPWRSLTFYPAWLTVSEGANATFTCSLSNWSEDLMLNWNRLSPSNQTEKQAAFCNGLSQPVQDARFQIIQLPNRHDFHMNILDTRRNDSGIYLCGAISLHPKAKIEESPGAELVVTERILETSTRYPSPSPKPEGRFQGM
chain 2: SSSPAKDPPIQRLRGAVTRCEDGQLFISSYKNEYQTMEVQNNSVVIKCDGLYIIYLKGSFFQEVKIDLHFREDHNPISIPMLNDGRRIVFTVVASLAFKDKVYLTVNAPDTLCEHLQINDGELIVVQLTPGYCAPEGSYHSTVNQVPL
B4: murine CD172a(SIRPα)-Fc-CD40L chimeric protein (Fc fusion)
chain 1: KELKVTQPEKSVSVAAGDSTVLNCTLTSLLPVGPIRWYRGVGPSRLLIYSFAGEYVPRIRNVSDTTKRNNMDFSIRISNVTPADAGIYYCVKFQKGSSEPDTEIQSGGGTEVYVLAKPSPPEVSGPADRGIPDQKVNFTCKSHGFSPRNITLKWFKDGQELHPLETTVNPSGKNVSYNISSTVRVVLNSMDVNSKVICEVAHITLDRSPLRGIANLSNFIRVSPTVKVTQQSPTSMNQVNLTCRAERFYPEDLQLIWLENGNVSRNDTPKNLTKNTDGTYNYTSLFLVNSSAHREDVVFTCQVKHDQQPAITRNHTVLGFAHSSDQGSMQTFPDNNATHNWN
chain 2: HRRLDKVEEEVNLHEDFVFIKKLKRCNKGEGSLSLLNCEEMRRQFEDLVKDITLNKEEKKENSFEMQRGDEDPQIAAHVVSEANSNAASVLQWAKKGYYTMKSNLVMLENGKQLTVKREGLYYVYTQVTFCSNREPSSQRPFIVGLWLKPSSGSERILLKAANTHSSSQLCEQQSVHLGGVFELQAGASVFVNVTEASQVIHRVGFSSFGLLKL
B5: recombinant human OX40L-Fc (Fc fusion, UniProt P23510 51-183, looked up)
chain: QVSHRYPRIQSIKVQFTEYKKEKGFILTSQKEDEIMKVQNNSVIINCDGFYLISLKGYFSQEVNISLHYQKDEEPLFQLKKVRSVNSLMVASLTYKDKVYLNVTTDNTSLDDFHVNGGELILIHQNPGEFCVL
notes: Positive control in SPR; not shown: Fc not described
B6: recombinant murine CD40 protein (receptor, UniProt P27512 24-193, looked up)
chain: VTCSDKQYLHDGQCCDLCQPGSRLTSHCTALEKTQCHPCDSGEFSAQWNREIRCHQHRHCEPNQGLRVKKEGTAESDTVCTCKEGQHCTSKDCEACAQHTPCIPGFGVMEMATETTDTVCHPCPVGFFSNQSSLFEKCYPWTSCEDKNLEVLQKGTSQTNVICGLKSRMR
notes: also called mCD40

The target in assay [1] is T1, OX40 receptor used in the functional ELISA of Example 12 (human, UniProt P43489 29-216).
T1 construct: also called hOX40
T1 sequence (looked up): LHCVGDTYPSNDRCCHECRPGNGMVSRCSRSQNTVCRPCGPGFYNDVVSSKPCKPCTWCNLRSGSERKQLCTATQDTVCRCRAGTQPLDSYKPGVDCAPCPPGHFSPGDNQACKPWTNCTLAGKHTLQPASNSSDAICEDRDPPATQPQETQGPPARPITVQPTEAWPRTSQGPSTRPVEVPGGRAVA
Kind of assay: functional ELISA on human OX40; x axis is dilution (1 to 16), concentration not given. (In general: In an ELISA, binding on a coated surface is turned into a signal by an enzyme label.)

Assay [2] addresses T2, human OX40 expressed on Jurkat cells (Jurkat/hOX40) (human, UniProt P43489 29-277).
T2 construct: whole, on cells
T2 sequence (looked up): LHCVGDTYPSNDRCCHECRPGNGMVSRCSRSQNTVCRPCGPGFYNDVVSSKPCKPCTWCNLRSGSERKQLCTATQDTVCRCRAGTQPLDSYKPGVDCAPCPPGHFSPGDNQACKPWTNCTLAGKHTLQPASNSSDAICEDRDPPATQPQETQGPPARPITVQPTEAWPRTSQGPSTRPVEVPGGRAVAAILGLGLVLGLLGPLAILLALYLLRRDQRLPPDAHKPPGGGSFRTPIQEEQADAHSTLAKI
Description: flow cytometry on Jurkat-hOX40 cells; Jurkat cells without hOX40 as control. A general note: Flow cytometry measures light scatter and fluorescence of single cells or particles in a stream.

For assay [3], the target named is plate-bound recombinant human PD-L1 protein (human, UniProt Q9NZQ7 19-238, limits assumed). Description: functional ELISA on human PD-L1; x axis is dilution (1 to 16), concentration not given.
The target of a further assay is Galectin-1 (human, UniProt P09382 2-135, limits assumed). Kind of assay: microarray containing about 6,000 human membrane proteins.
Another assay has as its target T3, TNFRSF4.
T3 construct: also called TNF Receptor Superfamily Member 4; canonical isoform
T3 chain: T2 sequence (looked up)
Described as above.

A further assay concerns the target T4, FcRn-His (Example 11).
T4 construct: A beta-2-microglobulin chain is not mentioned
Kind of assay: SPR (BioRad ProteOn XPR 360), His-tagged target chip-bound.

The target in assay [4] is T5, murine CD40 expressed on CHOK1 cells (CHOK1/mCD40) (murine, UniProt P27512 20-289).
T5 construct: whole, on cells
Description: flow cytometry on CHOK1/mCD40 cells.

The target of assay [5] is T1, OX40 receptor used in the functional …. Description: ELISA, plate-bound OX40, detection with αOX40L and HRP detection antibody; fold dilution series.
The target in assay [6] is T6, recombinant human OX40-His protein (human, UniProt P43489 29-216).
T6 construct: also called polyhistidine-tagged recombinant human OX40; hOX40; not shown: polyhistidine tag
T6 sequence (looked up): T1 sequence (looked up)
Description: SPR, His-tagged target on ProteOn HTG tris-NTA chip, positive control. The text has this:
Specifically, polyhistidine-tagged versions of recombinant human PD-L1, PD-L2, or OX40 was bound to ProteOn HTG tris-NTA chips (BIORAD).
(SPR reads the build-up and loss of mass on a sensor chip optically.)

For assay [7], the target named is B4. Kind of assay: SPR, binding to mCD40.

T4 sequence (Q61559 22-297, chain 1 of 2): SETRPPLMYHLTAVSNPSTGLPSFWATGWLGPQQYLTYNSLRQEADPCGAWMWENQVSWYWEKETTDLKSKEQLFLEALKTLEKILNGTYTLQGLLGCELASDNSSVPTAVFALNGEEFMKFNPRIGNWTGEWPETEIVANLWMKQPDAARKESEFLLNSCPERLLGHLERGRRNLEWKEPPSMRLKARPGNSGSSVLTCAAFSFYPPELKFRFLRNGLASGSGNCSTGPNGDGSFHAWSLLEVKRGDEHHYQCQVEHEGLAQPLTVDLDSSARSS
T4 sequence (P01887 21-119, chain 2 of 2, further chain): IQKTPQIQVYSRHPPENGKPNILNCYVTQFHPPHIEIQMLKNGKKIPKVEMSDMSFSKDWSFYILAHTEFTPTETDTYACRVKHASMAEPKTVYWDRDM
T5 sequence (P27512 20-289): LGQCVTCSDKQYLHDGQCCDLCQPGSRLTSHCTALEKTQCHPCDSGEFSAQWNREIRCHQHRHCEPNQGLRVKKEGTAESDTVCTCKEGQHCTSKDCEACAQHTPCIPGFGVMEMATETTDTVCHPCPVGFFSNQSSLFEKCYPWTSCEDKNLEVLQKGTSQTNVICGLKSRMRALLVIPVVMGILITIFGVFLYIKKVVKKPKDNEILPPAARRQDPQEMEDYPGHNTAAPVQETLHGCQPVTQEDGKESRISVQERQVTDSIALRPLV
Chain of plate-bound recombinant human PD-L1 protein (Q9NZQ7 19-238 limits assumed): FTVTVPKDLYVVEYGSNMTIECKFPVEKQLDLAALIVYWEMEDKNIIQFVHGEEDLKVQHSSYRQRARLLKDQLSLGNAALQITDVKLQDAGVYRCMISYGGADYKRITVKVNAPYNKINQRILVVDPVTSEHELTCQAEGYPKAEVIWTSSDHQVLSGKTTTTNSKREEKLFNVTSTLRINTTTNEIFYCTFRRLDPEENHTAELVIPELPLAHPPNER
Chain of Galectin-1 (P09382 2-135 limits assumed): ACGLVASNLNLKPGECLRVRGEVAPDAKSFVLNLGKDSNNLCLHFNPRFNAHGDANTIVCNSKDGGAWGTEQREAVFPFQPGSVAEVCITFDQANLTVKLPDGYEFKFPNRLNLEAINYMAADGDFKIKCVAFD

With B1, the binding result in [1], in assay [2] and in assay [3] was “binds” each time.

In the case of B2, the binding result in the assay with Galectin-1 and with TNFRSF4 was “binds” throughout.

In the case of B3, in the assay with FcRn-His (Example 11), the Kd was determined as 55.6 nM, the koff was 0.00262 s⁻¹ and the kon turned out to be 47200 M⁻¹ s⁻¹.

For the molecule B4, a half-maximal effect in assay [4] (EC50) was put at 20.2 nM.

Regarding B5, the binding result in assay [5] and in assay [6] was “binds” throughout.

In assay [7], B6 displayed a koff of 5.51e-05 s⁻¹ and a kon of 72800 M⁻¹ s⁻¹.

What is called Kd is the constant that tells how readily two partners part at equilibrium. What is called koff is the first-order rate constant of dissociation. One may read the kon as the rate constant with which the complex forms. Low values mean slow association, high ones fast association. As a reminder, the EC50 is the midpoint of the concentration-response curve. Read a high EC50 as weaker potency.
